| Hydrolysis Rate (A405 /min) (KAAFpNA) [A405/min] | Hydrolysis Rate (A405 /min) (sAAPLpNA) [A405/min] | Hydrolysis Rate (A405 /min) (sAAPMpNA) [A405/min] | Hydrolysis Rate (A405 /min) (sAAPFpNA) [A405/min] | Hydrolysis Rate (A405 /min) (VLKpNA) [A405/min] | Hydrolysis Rate (A405 /min) (sAAApNA) [A405/min] | Substance |
| --- | --- | --- | --- | --- | --- | --- |
| 0.006 | 0.58 | 0.19 | 0.87 | 0.0008 | 0.014 | LG-12 protease (Bacillus sp. strain LG-12 subtilisin, product of the sprC gene) (enzyme) |
| 0.002 | 0.45 | 0.25 | 0.83 | 0.0017 | 0.011 | B. amyloliquefaciens subtilisin (protease) (enzyme) |
| 0.08 | 0.23 | 0.75 | 1.15 | 0.0003 | 0.176 | B. lentus protease (Savinase) (enzyme) |
